This note sets out measurements from the Immune Epitope Database (IEDB).

Assay in all cases: IEDB peptide-MHC binding, purified MHC/direct/fluorescence; filed as Kd, often an IC50 or EC50 that approximates it; ≥ and ≤ were set here for values at or beyond the usual limits of such assays
Settings in all cases: source organism: Homo sapiens

Experiment [1] has as its target HLA-B*08:01.
The target in experiment [2] is HLA-B*13:02.
Experiment [3] deals with HLA-C*01:02.
In experiment [4] the target is HLA-A*02:01.
Experiment [5] has as its target HLA-C*07:01.
The target of experiment [6] is HLA-A*24:02.

As usually defined, the Kd is the constant that tells how readily two partners part at equilibrium. Low readings indicate higher affinity, high ones lower affinity. In experiment [1], DMKARQEAL showed a Kd of 0.1 µM.
On to ELPKYGVKV, for which the Kd in experiment [2] is at least 10 µM.
Sequence FLHEKQHEL registered an equilibrium dissociation constant (Kd) in experiment [1] of 0.1 µM.
Regarding FLPWHRLFL, the Kd in experiment [3] worked out at 0.1 µM.
HLIDPNTLQV came in with a Kd in experiment [4] of 0.01 µM.
In turn, KRPTPTFHS registered a Kd in experiment [5] of 1 µM.
The sequence LLMEKEDYHSL registered a Kd in experiment [4] of 0.1 µM.
On to QLPDSVNQL, for which, in experiment [4], the Kd came out at 0.1 µM.
Take RSLEYLPLRF: the Kd in experiment [6] was at least 10 µM.
On the same count and under the same terms, the figure for SYLEQASRI is 1 µM.
In experiment [1], YIHGGGWAL had a Kd of 0.1 µM.
